“Also recorded” adds a separate entry of the source.
B1: FapC monomers: monomeric FapC, purified via a PD10 desalting column (protein)
chain: GNEGGWHPPKPNPQSNNKGGATALVVDTQQNYNNKVSNFGTLNNASVSGSIKDASGNVGVNVAAGDNNQQANAAALASADASFVFGTATASTSVLQSGYGNTLNNYSNPNTASLSNSANNVSGNLGVNVAAGNFNQQKNDLAAAVSNGQYSTAGSAASQTSTGNTTVNSANYAYGGTYVSLKLNADGSYKGTSDQIGDVYLDTWEGQTHPGGSNTGHIDVDSQAQGAKDLNHDGGAFAFKEKGDVDLKGTVSGFIPAIVGFKTPVTNNASLSNSLQNVSGNVGVNIAAGGGNQQSNSLSIAAGCSSCPAGGESLGF
B2: FapC fibrils: FapC incubated in deionized water at 37 °C for 1 week, nonsonicated fibrils (protein)
chain: B1 chain
B3: FapCS derived from younger FapC fibrils: seeds from FapC fibrils fibrillated for 4 d at 37 °C and 25 °C (protein, UniProt Q9I2F0 25-340, looked up)
Functional amyloid subunit …: B1 chain
modifications: sonicated fibril seeds
notes: seeds from FapC fibrils fibrillated for 4 d at 37 °C and 25 °C

Legend:
Aβ [1] = molecular target: T1, Aβ (Homo sapiens, UniProt P05067); experiment: ThT kinetic assay of Aβ fibrillization (seeding with FapC species, Aβ seeds, bLgS); assay type: biochemical; conditions: 37 °C, n = 3; for effect on Aβ fibrillization (ThT): Aβ 50 × 10^−6 M, seeds/FapC species 5 × 10^−6 M, ThT fluorescence ex 445/em 485 nm; for effect on rate constant k of Aβ (in words): 5 × 10^−6 M with Aβ 50 × 10^−6 M, FapCS *, p < 0.05, FapC monomer and fibrils **, p < 0.005
T1 construct: purchased Anaspec Inc
Description: FapC seeds (FapCS) were produced by FapC fibrils of three different ages. The FapC monomers were produced as described^[ ^45 ^] and stored in 6 M GdmCl. Prior to fibrillization, the FapC monomers were purified via a PD10 desalting column. FapC monomers (1 mg mL^−1 or 40 × 10^−6 M) were incubated in deionized water at 37 °C for 1 week to produce mature fibrils and at 37 °C or 25 °C for 4 d to obtain young fibrils. Deionized water was used to make FapC fibrils as it is convenient to transfer the samples to other experimental conditions, i.e., buffered Aβ solution or PBS for in vivo microinjection. However, bacterial amyloids like FapC and curli can make amyloids over a range of conditions.^[ ^93 ^] FapCS were produced by sonicating an aqueous solution of FapC fibrils (10 × 10^−6 M) at 20 power of a probe sonicator (Sonics Vibracell: 750 watts and 20 kHz) for 2 min with 1 s on/off cycle. For in vitro cross‐seeding experiments, 50 × 10^−6 M of Aβ monomers were incubated with 5 × 10^−6 M of FapCS (10:1 molar ratio, Aβ:FapCS) at 37 °C. bLg amyloids were synthesized by heating of bLg monomers (80 °C, pH 2) of 10 mg mL^−1 solution for 24 h. Prior to the production of bLgS, the bLg amyloid solution was brought to pH 7 and then sonicated, similar to FapC, to generate bLgS.
Aβ (Anaspec Inc., purity ≥ 95%) was dissolved in 100 µL of hexafluoro‐2‐propanol (HFIP) and incubated at room temperature for 3 h. The acquired aliquots of this solution were freeze dried and stored at −20 °C for further experimentation. […] For the ThT kinetic assay, a 100 µL of aqueous solution containing Aβ (50 × 10^−6 M), FapCS or bLgS (5 × 10^−6 M) and ThT dye (100 × 10^−6 M) was incubated (37 °C) in a 96‐well plate. The ThT fluorescence (excitation: 445 nm/ emission: 485 nm) was recorded at specified time intervals for 50 h. Kinetic parameters (rate constant k, half‐life t 1/2 and lag‐time) were calculated as described.^[ ^94 ^] Briefly, kinetic curves were fitted to a sigmoidal curve =y0+ymax−y0/1+e^−(t−t1/2)k , where y 0 and y max are initial and final ThT fluorescence values, allowing us to calculate lag time = t 1/2 − 2/k.

Aβ [2] = molecular target: T1, Aβ; experiment: Static light scattering (SLS) of Aβ fibrillar growth; assay type: biochemical; conditions: ratio as for ThT assay, Malvern Zetasizer Nano, n = 3
Description: Increases in the size of Aβ in the presence and absence of FapCS or bLgS were monitored by SLS. Solution of Aβ with FapCS or bLgS, at a similar ratio as for the ThT assay, was prepared and incubated. SLS measurements were performed at different time intervals using a Malvern Zetasizer Nano. The parameters were fixed at 7 for attenuator and 4.20 mm for cell position. Quartz cells with low volume capacity (100 µL) were used. The light scattering intensities (kilo counts per sec) and the refractive indices of the samples, buffer alone and toluene were measured.

Aβ monomers = experiment: Isothermal titration calorimetry (ITC); assay type: binding; conditions: Aβ 200 × 10^−6 M into 20 × 10^−6 M seeds, 0.1% NH4OH, 25 °C
Description: ITC (Malvern MicroCal iTC200) was used to explore the interaction between Aβ monomers and oligomers (Aβo) with FapCS. Sample solutions were degassed at 25 °C while stirring (100 rpm). Aβ (200 × 10^−6 M, 40 µL) was filled into the syringe while FapCS or bLgS (20 × 10^−6 M, 200 µL) were filled in the cell (coin shaped). 0.1% NH4OH buffer solution was used for both solutions. Aβ was injected into the cell at an injection volume of 2 µL at the duration of 4 s and with a spacing of 180 s. First injection was 0.2 µL for 0.4 s duration and a total of 16 injections were programed. The heat exchange was recorded with a Microcal analysis (origin v7) software. The heat of dilution (Aβ against buffer) was subtracted from the interaction heat of samples. The acquired curves were fitted to a sequential binding model and thermodynamic parameters of binding energy (ΔH), free energy (ΔG), and entropic factor (TΔS) were calculated. Aβo for the ITC experiments was prepared by incubating Aβ aqueous solution (200 × 10^−6 M) at 4 °C for 48 h.^[ ^65 ^]

Aβ [3] = molecular target: T1, Aβ; experiment: Circular dichroism spectroscopy, secondary structure; conditions: incubation with Aβ, Figure S7
Description: Solutions of 200 µL, at similar molar ratios as for ThT assay, were prepared and incubated at 37 °C. CD spectra for different samples at 0, 12 and 48 h were measured with a CD spectrophotometer (Jasco) from 190 to 240 nm (1 nm step size). The percentage secondary structure was calculated by the CD data via Dichroweb analysis with parameters of Contin/reference set 4.^[ ^95 ^]

Aβ [4] = molecular target: T1, Aβ; experiment: TEM imaging of Aβ with FapC species or bLgS; conditions: 12 h incubation, uranyl acetate negative stain
Description: (§1) Aβ incubated in the presence or absence of FapCS, FapC monomers, FapC fibrils or bLgS were subjected to TEM imaging. After incubation for 12 h, a drop of sample was applied on a glow‐discharged carbon‐coated copper grid. After 1 min, the sample was blotted and then negatively stained with uranyl acetate (1%) for 30 s. The dried grid was then imaged with a Technei F20 TEM at 200 kV. For AFM, a drop of sample was placed on freshly cleaved mica surface and rinsed with water after 2 min and dried with pressurized air. The sample was scanned with an AFM (Nanoscope VIII Multimode Scanning Force Microscopes, Bruker), covered with an acoustic hood to minimize the vibrational noise. Images were acquired under the tapping mode with a silicon nitride cantilever (Bruker). AFM images were processed with Nanoscope Analysis 1.5 software to flatten the background and to calculate the statistical parameters.

Aβ fibrils = experiment: AFM of fibrils, FiberApp statistical analysis
Description: as §1

Row | Molecule | effect on Aβ fibrillization (ThT) (Aβ [1]) | Aβ fibrillar growth by SLS (Aβ [2]) | binding to Aβ by ITC (in words) (Aβ monomers) | effect on secondary structure (in words) (Aβ [3]) | TEM observation (Aβ [4]) | effect on rate constant k of Aβ (in words) (Aβ [1]) | pitch size of fibrils (Aβ fibrils; FiberApp) | fibril diameter (Aβ fibrils; from fibril heights, mean ± SD)
1 | bLgS: seeds from whey protein β‐lactoglobulin amyloids by sonication [reference compound] | did not render any acceleration of Aβ fibrillization | did not render any acceleration of Aβ fibrillization | Insubstantial binding | did not induce β‐sheet formation in Aβ; also recorded: α‐helical and random‐coil structures of bLgS were slightly increased | did not render any acceleration of Aβ fibrillization | – | – | –
2 | B1 | lacked such acceleratory effect | – | – | – | appeared to aggregate on top of Aβ fibrils | significantly suppressed | – | –
3 | B2 | lacked such acceleratory effect; also recorded: significantly suppressed | – | – | – | did not coat FapC fibrils | significantly suppressed | 26 nm | 3.6 ± 1.0 nm
4 | B3 | accelerated Aβ fibrillization (Figure S3, Supporting Information), but less than the seeds derived from mature FapC fibrils | – | – | – | – | – | – | –

Reference: paper PMC7509637 (Advanced Science, 2020)
